Data as given in patent US20230322887A1 (SHANGHAI MINWEI BIOTECHNOLOGY, published 2023).
Numbering of substitutions follows the chain as printed.

B1: GLP-1/glucagon dual agonist polypeptide expressed by clone 3D9 (peptide)
peptide: HSQGTFTSDYSKYLDEQAAKEFIAWLIAGGPSSGAPPPS
B2: GLP-1/glucagon dual agonist polypeptide expressed by clone 6B7 (peptide)
peptide: B1 peptide with A18R, E21D
B3: GLP-1/glucagon dual agonist polypeptide expressed by clone 12C6 (peptide)
peptide: B1 peptide with A18R, I23V

Columns and labels:
[1] = biological target: human glucagon receptor (human, UniProt P47871 26-477); experiment: cell-based or functional assay
Chain of human glucagon receptor (P47871 26-477): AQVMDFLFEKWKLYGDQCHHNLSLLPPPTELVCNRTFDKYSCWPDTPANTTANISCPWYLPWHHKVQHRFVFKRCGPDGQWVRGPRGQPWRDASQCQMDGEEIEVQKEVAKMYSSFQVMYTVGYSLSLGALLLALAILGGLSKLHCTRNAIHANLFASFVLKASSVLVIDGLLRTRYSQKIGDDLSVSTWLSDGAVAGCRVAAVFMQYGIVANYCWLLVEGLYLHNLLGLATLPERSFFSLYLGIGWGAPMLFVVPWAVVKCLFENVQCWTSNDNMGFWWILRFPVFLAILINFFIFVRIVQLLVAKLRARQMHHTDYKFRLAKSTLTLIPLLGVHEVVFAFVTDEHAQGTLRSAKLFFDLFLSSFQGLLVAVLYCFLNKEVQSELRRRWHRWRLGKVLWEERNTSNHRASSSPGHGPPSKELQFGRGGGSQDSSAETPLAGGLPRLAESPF

[2] = biological target: human GLP-1 receptor (human, UniProt P43220 24-463); experiment: cell-based or functional assay

| Molecule | EC50 human glucagon-R (CRE-luciferase reporter cells) [1] [µM] | % RLUGlucagon (CRE-luciferase reporter, against the 100 ng/ml glucagon positive control) [1] [%] | % RLUGLP-1 (CRE-luciferase reporter, against the 100 ng/ml GLP-1 positive control) [2] [%] |
| --- | --- | --- | --- |
| GLP-1 (from UniProt P01275 92-128) (ligand) | > 1000 | – | – |
| B1 | – | 197 | 286 |
| B2 | – | 156 | 123 |
| B3 | – | 112 | 183 |
